# Assay results published in patent US6051381, “Prokaryotic two-hybrid system” (dated 2000).
# T1: wild-type AraC (E. coli, UniProt P0A9E0)
# T1 sequence: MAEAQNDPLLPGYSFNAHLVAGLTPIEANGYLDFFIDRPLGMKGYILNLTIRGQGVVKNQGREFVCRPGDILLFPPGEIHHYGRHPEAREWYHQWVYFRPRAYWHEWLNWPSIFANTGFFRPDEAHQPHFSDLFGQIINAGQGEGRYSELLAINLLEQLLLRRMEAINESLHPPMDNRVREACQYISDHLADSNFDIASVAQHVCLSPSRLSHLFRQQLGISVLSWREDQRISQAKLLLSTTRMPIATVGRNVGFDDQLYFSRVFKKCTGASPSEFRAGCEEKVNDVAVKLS
# Experiments:
# E6-LexA (E. coli; HPV) [1] = target: E6-LexA (E. coli; HPV) (UniProt P0A7C2); assay: E. coli two-hybrid, lacZ repression; 0.5 mM IPTG, 50 ng/ml anhydrotetracycline; reporter P3IHFLexAimpX
# [2] = target: Jun-LexADNA (mouse; E. coli) (UniProt P05627); assay: E. coli two-hybrid, lacZ repression; reporter construct P3IHFLexAOpH
# [3] = target: Jun-LexADNA (mouse; E. coli) (UniProt P05627); assay: E. coli two-hybrid, lacZ repression; reporter construct P3LexAOpH
# [4] = target: Jun-LexADNA (mouse; E. coli) (UniProt P05627); assay: E. coli two-hybrid, lacZ repression; reporter construct P3LexAOpX
# [5] = target: Jun-LexADNA (mouse; E. coli) (UniProt P05627); assay: E. coli two-hybrid, lacZ repression; reporter construct P3
# [6] = target: Jun-LexADNA (mouse; E. coli) (UniProt P05627); assay: E. coli two-hybrid, lacZ repression; reporter construct P3IHFLexAOpX
# [7] = target: Fos-LexA (E. coli; mouse) (UniProt P01101); assay: E. coli two-hybrid, lacZ repression; reporter plasmid P3IHFLexAOpimpX
# [8] = target: Jun-LexADNA (mouse; E. coli) (UniProt P05627); assay: E. coli two-hybrid, lacZ repression; reporter construct P3IHFLexAOpmH
# E6-LexA (E. coli; HPV) [9] = target: E6-LexA (E. coli; HPV) (UniProt P0A7C2); assay: E. coli two-hybrid, lacZ repression; non-interacting control pair; reporter P3IHFLexAimpX
# zip-LexADNA (E. coli) [10] = assay: E. coli two-hybrid, lacZ repression; reporter construct P3LexAOpH
# zip-LexADNA (E. coli) [11] = assay: E. coli two-hybrid, lacZ repression; reporter construct P3
# zip-LexADNA (E. coli) [12] = assay: E. coli two-hybrid, lacZ repression; reporter construct P3IHFLexAOpX
# zip-LexADNA (E. coli) [13] = assay: E. coli two-hybrid, lacZ repression; reporter construct P3IHFLexAOpmH
# zip-LexADNA (E. coli) [14] = assay: E. coli two-hybrid, lacZ repression; reporter construct P3LexAOpX
# zip-LexADNA (E. coli) [15] = assay: E. coli two-hybrid, lacZ repression; reporter construct P3IHFLexAOpH
# wild-type AraC = target: T1, wild-type AraC; assay: E. coli two-hybrid, lacZ repression, reporter P3IHFLexAOpimpX
molecule,measurement,setting,value
E6AP-AraCDNA (from UniProt Q05086),repression ratio,E6-LexA (E. coli; HPV) [1],> 30 fold
Fos-AraCDNA (from UniProt P01101),repression ratio,[2],1.9
same,repression ratio,[3],2
same,repression ratio,[4],2.3
same,repression ratio,[5],1.1
same,repression ratio,[6],4.2
Jun-AraC (from UniProt P05627),repression ratio,[7],11 fold
AraCDNA,repression ratio,[8],1.09
same,repression ratio,[6],1.1
AraCDNA (protein) ESLHPPMDNRVREACQYISDHLADSNFDIASVAQHVCLSPSRLSHLFRQQLGISVLSWREDQRISQAKLLLSTTRMPIATVGRNVGFDDQLYFSRVFKKCTGASPSEFRAGCEEKVNDVAVKLS,repression ratio,E6-LexA (E. coli; HPV) [9],1.5
same,repression ratio,zip-LexADNA (E. coli) [10],1
same,repression ratio,zip-LexADNA (E. coli) [11],1.2
same,repression ratio,zip-LexADNA (E. coli) [12],1.2
same,repression ratio,zip-LexADNA (E. coli) [13],0.9
same,repression ratio,zip-LexADNA (E. coli) [14],1.1
same,repression ratio,zip-LexADNA (E. coli) [15],1.1
wild-type AraC (protein) MAEAQNDPLLPGYSFNAHLVAGLTPIEANGYLDFFIDRPLGMKGYILNLTIRGQGVVKNQGREFVCRPGDILLFPPGEIHHYGRHPEAREWYHQWVYFRPRAYWHEWLNWPSIFANTGFFRPDEAHQPHFSDLFGQIINAGQGEGRYSELLAINLLEQLLLRRMEAINESLHPPMDNRVREACQYISDHLADSNFDIASVAQHVCLSPSRLSHLFRQQLGISVLSWREDQRISQAKLLLSTTRMPIATVGRNVGFDDQLYFSRVFKKCTGASPSEFRAGCEEKVNDVAVKLS,repression ratio,zip-LexADNA (E. coli) [10],1.1
same,repression ratio,zip-LexADNA (E. coli) [11],1.2
same,repression ratio,zip-LexADNA (E. coli) [12],1.2
same,repression ratio,zip-LexADNA (E. coli) [13],1.06
same,repression ratio,zip-LexADNA (E. coli) [14],1.2
same,repression ratio,zip-LexADNA (E. coli) [15],1
Fos-LexA (other) RGKVEQLSPEEEEKRRIRRERNKMAAAKCRNRRRELTDTLQAETDQLEDEKSALQTEIANLLKEKEKLEFILAAHRPACKIPDDLGFPEEMSV,binding result,wild-type AraC,no binding
